For data set [1], the target named is protease-activated receptor 2 (PAR-2) on human eosinophils / BEAS-2B airway epithelial cells (UniProt P55085).
For data set [2], the system named is T1, fluorescent quenched PAR-2 peptide substrate Abz-SKGRSLIGK(Dnp)D.
T1 sequence: SKGRSLIGK

Chain of protease-activated receptor 2 (PAR-2) on human eosinophils / BEAS-2B airway epithelial cells (P55085 whole entry, looked up): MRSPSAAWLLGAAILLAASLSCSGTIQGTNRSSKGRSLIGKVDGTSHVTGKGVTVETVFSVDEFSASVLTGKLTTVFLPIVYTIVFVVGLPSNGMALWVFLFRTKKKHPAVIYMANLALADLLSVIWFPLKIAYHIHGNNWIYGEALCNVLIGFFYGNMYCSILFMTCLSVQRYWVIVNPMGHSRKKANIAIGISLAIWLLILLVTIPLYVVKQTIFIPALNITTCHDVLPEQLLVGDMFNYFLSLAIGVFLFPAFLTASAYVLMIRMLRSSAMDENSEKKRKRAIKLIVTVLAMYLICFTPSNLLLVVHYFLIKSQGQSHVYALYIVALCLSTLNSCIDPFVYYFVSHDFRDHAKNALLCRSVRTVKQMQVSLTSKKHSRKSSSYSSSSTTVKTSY

Turning to Aspergillus xylanase, the “deglycosylation and downregulation of PAR-2 in eosinophils (Western blot)” value in data set [1] was “The 41 kDa and 70 kDa PAR-2 molecules were deglycosylated by xylanase temporarily”.

For trypsin, the “in vitro assay for PAR-2 cleavage and activation (fluorescent quenched peptide substrate)” value in data set [2] is “trypsin, as positive control, clearly cleaved this peptide”.

The record behind these values is patent US7662400.
